Reference: patent US20150291521, “PYRROL-1-YL BENZOIC ACID DERIVATIVES USEFUL AS MYC INHIBITORS” (DANA-FARBER CANCER INSTITUTE, INC., published 2015)

Columns and labels:
Max/Max homodimer = Max/Max homodimer (Homo sapiens, UniProt P61244 P61244:1-160); experiment: EMSA; Max/Max/Ebox complex; disrupted by compound 101, not 79; settings: tags: His6-Max; chain copies: 2 (stated); label: 5' biotin-triethyleneglycol; self-complementary
c-Myc/Max heterodimer = c-Myc/Max heterodimer (Homo sapiens, UniProt P01106-1;P61244 P01106-1:1-439,P61244:1-160); experiment: EMSA; complex formed with purified proteins; inhibited dose-dependently by compound 63; settings: tags: c-Myc full-length, His6 removed by thrombin (assay 1) or His6-c-Myc (reciprocal assay), label: 5' biotin-triethyleneglycol, self-complementary
c-Myc/Max heterodimer, sequence (P01106 16-454, chain 1 of 2): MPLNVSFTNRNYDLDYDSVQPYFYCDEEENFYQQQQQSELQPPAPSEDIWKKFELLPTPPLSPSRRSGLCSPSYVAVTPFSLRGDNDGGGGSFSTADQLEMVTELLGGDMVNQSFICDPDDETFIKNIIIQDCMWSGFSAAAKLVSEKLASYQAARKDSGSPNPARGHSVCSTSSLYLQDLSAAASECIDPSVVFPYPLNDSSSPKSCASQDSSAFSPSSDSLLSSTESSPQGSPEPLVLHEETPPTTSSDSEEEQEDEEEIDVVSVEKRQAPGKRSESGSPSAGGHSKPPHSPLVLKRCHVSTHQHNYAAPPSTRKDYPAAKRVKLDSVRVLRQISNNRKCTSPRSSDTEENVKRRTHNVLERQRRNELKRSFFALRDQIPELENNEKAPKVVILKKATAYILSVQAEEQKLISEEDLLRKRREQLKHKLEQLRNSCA
c-Myc/Max heterodimer, sequence (P61244 whole entry, chain 2 of 2): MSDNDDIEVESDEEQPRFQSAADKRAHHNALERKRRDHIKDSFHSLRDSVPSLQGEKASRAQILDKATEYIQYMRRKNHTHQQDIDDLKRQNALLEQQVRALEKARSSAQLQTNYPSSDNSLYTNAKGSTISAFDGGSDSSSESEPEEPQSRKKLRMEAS

Max/Max homodimer, sequence (P61244 whole entry, one chain of several): as the sequence (P61244 whole entry, chain 2 of 2) above

B1: Ebox DNA (dsDNA)
DNA 1: GGAAGCAGACCACGTGGTCTGCTTCC
DNA 2: GGAAGCAGACCACGTGGTCTGCTTCC
binding result (Max/Max homodimer): binds
binding result (c-Myc/Max heterodimer): binds
